Measurements reported in doi:10.1101/2021.10.22.465432 (bioRxiv, 2021).

Molecular target: T1, Drosha (mouse (endogenous in N2A), UniProt Q5HZJ0 1-1373)
T1 sequence: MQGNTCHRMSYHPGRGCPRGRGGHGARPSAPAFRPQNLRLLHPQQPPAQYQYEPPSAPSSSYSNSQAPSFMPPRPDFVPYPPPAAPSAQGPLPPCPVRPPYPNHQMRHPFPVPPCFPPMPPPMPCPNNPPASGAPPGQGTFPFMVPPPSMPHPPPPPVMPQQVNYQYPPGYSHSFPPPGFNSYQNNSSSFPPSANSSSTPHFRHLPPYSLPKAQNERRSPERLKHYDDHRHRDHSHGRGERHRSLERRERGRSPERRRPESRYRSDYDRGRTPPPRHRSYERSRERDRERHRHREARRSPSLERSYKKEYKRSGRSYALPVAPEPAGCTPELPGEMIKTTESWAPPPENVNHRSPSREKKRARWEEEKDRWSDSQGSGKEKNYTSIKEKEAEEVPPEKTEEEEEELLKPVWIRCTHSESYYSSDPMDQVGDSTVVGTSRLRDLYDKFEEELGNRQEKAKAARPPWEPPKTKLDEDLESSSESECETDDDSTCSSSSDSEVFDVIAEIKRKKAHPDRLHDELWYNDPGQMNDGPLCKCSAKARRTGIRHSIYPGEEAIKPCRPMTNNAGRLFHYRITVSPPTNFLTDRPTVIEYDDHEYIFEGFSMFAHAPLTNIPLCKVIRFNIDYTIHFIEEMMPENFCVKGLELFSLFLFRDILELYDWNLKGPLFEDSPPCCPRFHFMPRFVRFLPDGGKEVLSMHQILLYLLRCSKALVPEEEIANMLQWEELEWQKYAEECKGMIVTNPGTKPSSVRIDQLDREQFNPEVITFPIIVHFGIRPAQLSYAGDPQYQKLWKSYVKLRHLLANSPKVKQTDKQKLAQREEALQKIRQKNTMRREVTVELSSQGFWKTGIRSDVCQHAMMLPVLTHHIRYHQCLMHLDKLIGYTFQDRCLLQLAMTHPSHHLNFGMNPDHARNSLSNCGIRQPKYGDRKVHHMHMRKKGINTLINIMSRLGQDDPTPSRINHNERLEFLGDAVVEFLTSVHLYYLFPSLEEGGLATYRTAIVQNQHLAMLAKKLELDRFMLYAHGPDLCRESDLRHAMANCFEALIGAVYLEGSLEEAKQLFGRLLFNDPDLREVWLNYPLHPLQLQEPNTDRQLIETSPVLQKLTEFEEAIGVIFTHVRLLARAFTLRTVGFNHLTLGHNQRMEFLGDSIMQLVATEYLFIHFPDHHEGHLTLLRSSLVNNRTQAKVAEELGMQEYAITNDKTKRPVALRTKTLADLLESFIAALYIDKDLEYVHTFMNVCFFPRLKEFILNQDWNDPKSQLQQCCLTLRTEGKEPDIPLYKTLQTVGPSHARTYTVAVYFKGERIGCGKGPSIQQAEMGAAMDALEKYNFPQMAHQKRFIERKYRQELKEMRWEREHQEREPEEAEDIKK
Experiment: co-IP

fold reduction in binding against Safb1 wild type: 5.7 fold
B1: Safb1-ΔRE-HA (natural protein)
chain: MAETLSGLGDASAAGAAAVSSAASETGTRRLSDLRVIDLRAELKKRNLDSSGNKSVLMERLKKAIEDEGGNPDEIEVTSECNKKMPKRPSKGRKPEDEGVEDNGLEENSGDGQEDVETSLENLQDMDMMDISVLDEADIDNGSVADCVEEEEEATLPEGLADSTELVEGDLKGLPEQLQEHAIDDKDTVNNVDTSSSDFTMLQEMEEASLEPENEKILDILGETCKSEPVKEEGSELEQPFAQATSSVGPDRKLAEEEDLFESCGHPEEEEEEEEEDQEEEQEEEGDLALASSSKSESPSTRCQWSEADAPLAVVKREPADAPGGGTGMDREPVGLEEPVEQSSTAAQLPEATSQELVRAPTAALSPEPQDSKEDVKKFAFDACNDVPAPPKESSASEGADQKMSSVEEDSDTKRLSREEKGRSSCGRNFWVSGLSSTTRATDLKNLFSRYGKVVGAKVVTNARSPGARCYGFVTMSTAEEATKCISHLHKTELHGKMISVEKAKSEPTGKRVPDRRDGDSKKEKASTSDRSANLKREEKGERKDDAKKTDHREREELRRQQELRYEQERRPAVRRPYEVDGRRDDAYWPEAKRAALDDRYHSDFSRQDRFHDFDHRDRGRYPNHSVDRREGSRSMMGDREGQHYPERHGGPERHGRDSRDGWGYGSNKRLSEGRGLPPPPRRDWGEHGRRLEDDRAWQGTADGGMMERDHKRWQGGERSMSGHSGPGHMMNRGGMSGRGSFAPGGASRGHVIPRGGMQAGFGGQSRGSRPSDARFTRRY
